# Experimental data published in PMC11358003, “A bispecific antibody approach for the potential prophylactic treatment of inherited bleeding disorders” (Nature Cardiovascular Research, 2024).
# Values joined by “and” are separate entries in the source; they are usually repeats but may differ in a detail not shown here. Identical values can stand only once. Like-named read-outs stand apart in the source and are kept apart here.
# T1: sTLT-1 stalk peptide (37-mer TLT-1 peptide) (human)
# T1 construct: TREM-like transcript-1 (TLT-1), amino acids 111-147 of mature TLT-1; numbers count on: the mature protein; Amino acids 7-21 of the peptide are seen in the crystal structure; also called synthetic stalk peptide of TLT-1; source: synthetic peptide
# T1 chain: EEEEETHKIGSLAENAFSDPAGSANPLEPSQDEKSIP
# T2: active site-inhibited FVIIa (FVIIai), prepared from FVIIa-desGLA (Homo sapiens, active site inhibited with H-D-Phe-Phe-Arg-chloromethyl ketone (FFR-cmk))
# T2 construct: source: CHO cells (CHO-EBNA), purified (VIISelect, desalted), then incubated with FFR-cmk
# T2 chain 1: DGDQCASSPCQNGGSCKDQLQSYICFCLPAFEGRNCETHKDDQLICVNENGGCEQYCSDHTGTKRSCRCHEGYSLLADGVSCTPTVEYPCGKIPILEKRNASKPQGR
# T2 chain 2: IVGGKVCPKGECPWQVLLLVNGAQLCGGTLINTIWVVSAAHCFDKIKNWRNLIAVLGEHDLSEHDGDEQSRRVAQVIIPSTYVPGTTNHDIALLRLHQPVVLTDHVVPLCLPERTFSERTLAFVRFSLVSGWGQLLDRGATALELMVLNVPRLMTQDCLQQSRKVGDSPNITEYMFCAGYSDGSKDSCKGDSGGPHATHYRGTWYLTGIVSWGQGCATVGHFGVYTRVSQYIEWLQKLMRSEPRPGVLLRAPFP
# B1: anti-TLT-1 Fab fragment of HMB-001 (Fab, V domains shown)
# VH: EVQLVESGGGLVQPGGSLRLSCAASGFTFSRYWMTWVRQAPGKGLVWVGEINPDSSTINYAPSVKGRFTISRDNAKNTLYLQMNSLRAEDTAVYYCASGVFTSWGQGTLVTVSS
# VL: DIVMTQTPLSSPVTLGQPASISCRSSQSLVHRQGNTYFHWLQQRPGQPPRLLIYKVSNRFSGVPDRFSGSGAGTDFTLKISRVEAEDVGVYYCSQSTHVPYTFGQGTKLEIK
# notes: Fab part of the heavy chain of the anti-TLT-1 arm of m1; heavy chain of the Fab in PDB 8CHE; as the light chain of the anti-TLT-1 arm of m1; light chain of the Fab in PDB 8CHE; source: CHO cells, purified (KappaSelect)
# B2: monovalent control antibody with the TLT-1-binding arm of HMB-001 (antibody, V domains shown)
# VH: B1 VH
# VL: B1 VL
# notes: as the heavy chain of the anti-TLT-1 arm of m1 (without DuoBody mutations); Fab part in PDB 8CHE; constant part as in PDB 5DK3; as the light chain of the anti-TLT-1 arm of m1; light chain of the Fab in PDB 8CHE; empty Fc, E216-G446 in EU numbering; About 100 kDa; also called anti-TLT-1 cAb; monovalent cAb; source: DuoBody assembly of the parental anti-TLT-1 antibody with an empty Fc; purified by …
# B3: monovalent control antibody with the FVIIa-binding arm of HMB-001 (antibody, V domains shown)
# VH: QVQLQESGPGLVKPSQTLSLTCTVSGYSISSDSAWSWIRQPPGKGLEWIGYIQYSGSTNYNPSLKSRVTISRDTSKNQFSLKLSSVTAADTAVYYCARSVNYYGNSFAVGYWGQGTLVTVSS
# VL: EIVLTQSPATLSLSPGERATLSCRASQGISDYLHWYQQKPGEAPRLLIKYTSQPATGIPARFSGSGSGTDFTLTISSLEPEDFAVYYCQNGHSFPLTFGQGTKLEIK
# notes: as the heavy chain of the anti-FVIIa arm of m1; Fab part in PDB 8CN9; constant part as in PDB 5DK3 with the DuoBody mutations (EU numbering); as the light chain of the anti-FVIIa arm of m1; light chain of the Fab in PDB 8CN9; empty Fc, E216-G446 in EU numbering; About 100 kDa; also called anti-FVIIa cAb; monovalent cAb; source: DuoBody assembly of the parental anti-FVIIa antibody with an empty …
# B4: anti-FVIIa Fab fragment of HMB-001 (Fab, V domains shown)
# VH: B3 VH
# VL: B3 VL
# notes: Fab part of the heavy chain of the anti-FVIIa arm of m1; heavy chain of the Fab in PDB 8CN9; as the light chain of the anti-FVIIa arm of m1; light chain of the Fab in PDB 8CN9; also called anti-FVII Fab of HMB-001; source: HEK293 suspension cells (293Expi), transient transfection, purified (MabSelect SuRe)
# Columns and labels:
# [1] = molecular target: soluble extracellular fragment of TLT-1 (sTLT-1) (human) (UniProt Q86YW5); experiment: SPR; Biacore 8K, 25 °C; biAb (0.5-4 nM) captured on immobilised anti-human IgG on a CM4 chip; FVIIa (0-4 nM) or sTLT-1 (0-60 μM) injected; 10 mM HEPES, 150 mM NaCl, 0.05% polysorbate 20, pH 7.4, 5 mM CaCl2, 1 mg/ml BSA; Langmuir 1:1 kinetics; n = 2
# [2] = molecular target: recombinant activated coagulation factor VII (Homo sapiens) (UniProt P08709); experiment: SPR; Biacore 8K, 25 °C; FVIIa or FVII (2.5 nM) captured on immobilised anti-FVII IgG1 (CaFVII-22, against the Gla domain; CM4 chip); HMB-001 (0-4 nM) injected; 10 mM HEPES, 150 mM NaCl, 0.05% polysorbate 20, pH 7.4, 5 mM CaCl2, 1 mg/ml BSA; Langmuir 1:1 kinetics model; n = 2
# [3] = molecular target: recombinant zymogen FVII (Homo sapiens) (UniProt P08709); experiment: as above
# [4] = molecular target: soluble extracellular fragment of TREM-like transcript-1 (Homo sapiens (Human).) (UniProt Q86YW5); experiment: SPR; Biacore 8K, 25 °C; biAb (0.5-4 nM) captured on immobilised anti-human IgG (CM4 chip); FVIIa (0-4 nM) or sTLT-1 (0-60 μM) injected; 10 mM HEPES, 150 mM NaCl, 0.05% polysorbate 20, pH 7.4, 5 mM CaCl2, 1 mg/ml BSA; Langmuir 1:1 kinetics model; n = 2
# [5] = molecular target: recombinant activated coagulation factor VII (Homo sapiens) (UniProt P08709); experiment: as above
# [6] = molecular target: recombinant zymogen FVII (Homo sapiens) (UniProt P08709); experiment: SPR; Biacore 8K, 25 °C; FVIIa or FVII (2.5 nM) captured on immobilised anti-FVII IgG1 (against the Gla domain) on a CM4 chip; HMB-001 0-4 nM injected; 10 mM HEPES, 150 mM NaCl, 0.05% polysorbate 20, pH 7.4, 5 mM CaCl2, 1 mg/ml BSA; Langmuir 1:1 kinetics; n = 2
# [7] = molecular target: recombinant activated coagulation factor VII (rFVIIa, NovoSeven) (Homo sapiens) (UniProt P08709); experiment: as above
# [8] = molecular target: soluble extracellular fragment of TREM-like transcript-1 (Homo sapiens (Human).) (UniProt Q86YW5); experiment: SPR; Biacore 8K, 25 °C; biAb (0.5-4 nM) captured on immobilised anti-human IgG (CM4 chip); FVIIa (0-4 nM) or sTLT-1 (0-60 μM) injected; 10 mM HEPES, 150 mM NaCl, 0.05% polysorbate 20, pH 7.4, 5 mM CaCl2, 1 mg/ml BSA; Langmuir 1:1 kinetics model; n = 2; remark: listed apart in the source
# [9] = molecular target: T1, sTLT-1 stalk peptide (37-mer TLT-1 …); experiment: crystal structure; gel-filtrated 1:1 Fab-sTLT-1 stalk peptide complex; sitting-drop vapor diffusion at 18 °C; 1 M LiCl, 0.1 M Na citrate-citric acid pH 4.0, 20% PEG 6000; two complexes in the asymmetric unit; conditions: both partners purified
# [10] = molecular target: T3, soluble extracellular fragment of TLT-1 (sTLT-1) (human, UniProt Q86YW5); experiment: SPR; SPR binding assay of the monovalent control antibodies with their antigens; format not told; conditions: both partners purified
# T3 construct: TREM-like transcript-1 (TLT-1), amino acids 1-147 of mature TLT-1 (IgV domain 1-110 and stalk 111-147); numbers count on: the mature protein; two amino acid (valine-aspartic acid) linker before the His tag, told in words; source: CHO cells (ExpiCHO), transient transfection, purified (HisTrap); not shown: His tag, C-terminal, kept
# [11] = molecular target: T4, recombinant activated coagulation factor VII (rFVIIa, NovoSeven) (Homo sapiens, UniProt P08709); experiment: as above; conditions: both partners purified
# T4 construct: source: bought: NovoSeven, Novo Nordisk
# [12] = molecular target: T5, active site-inhibited FVIIa:soluble TF complex (FVIIai:sTF) (human | , UniProt P08709;P13726, active site inhibited with H-D-Phe-Phe-Arg-chloromethyl ketone (FFR-cmk)); experiment: crystal structure; SEC-purified Fab:FVIIai:sTF complex; sitting-drop vapor diffusion at 18 °C; 0.15 M CsCl, 15% PEG 3350; four complexes in the asymmetric unit; conditions: both partners purified
# T5 construct: as the light chain of m8: factor VIIa light chain without the N-terminal Gla domain; as the heavy chain of m8: factor VIIa heavy chain (protease domain); as m9: tissue factor, amino acids 1-219; also called FVIIa:sTF complex; source: FVIIai from CHO cells and sTF from Escherichia coli; SEC-purified together with the Fab; copies: + +
# [13] = molecular target: T2, active site-inhibited FVIIa (FVIIai), …; experiment: as above; conditions: both partners purified
molecule,measurement,setting,value
HMB-001 (bispecific antibody),Kd,[1],2.3 nM
same,Kd,[2],0.37 nM
same,koff,[2],0.000664 s⁻¹ and 0.000665 s⁻¹ and 0.000666 s⁻¹
same,kon,[2],1.8e+06 M⁻¹ s⁻¹
same,Kd,[3],0.4 nM
same,koff,[3],0.000725 s⁻¹
same,kon,[3],1.83e+06 M⁻¹ s⁻¹ and 1.82e+06 M⁻¹ s⁻¹
same,Kd,[4],2.34 nM
same,koff,[4],0.000641 s⁻¹
same,kon,[4],274000 M⁻¹ s⁻¹
same,Kd,[5],0.04 nM
same,koff,[5],0.000127 s⁻¹
same,kon,[5],2.9e+06 M⁻¹ s⁻¹
same,Kd,[6],0.4 nM
same,Kd,[7],0.37 nM
same,Kd,[8],2.33 nM and 2.35 nM
same,koff,[8],0.00061 s⁻¹ and 0.000672 s⁻¹
same,kon,[8],262000 M⁻¹ s⁻¹ and 286000 M⁻¹ s⁻¹
B1,binding result,[9],binds
B2,binding result,[10],binds
B3,binding result,[11],binds
B4,binding result,[12],binds
same,binding result,[13],binds
